Results published in patent US20170008955A1 (CNJ, published 2017).
Substitutions are numbered along the chain they refer to.

B1: hu5E3-IgG1 (antibody, V domains shown)
VH: QVQLQQSGPEVKKPGASVKISCKASGYIFTSYYIQWVIHAPGQGLEWIGWIYPGNVNTKYNEKFKGKATLTADKSSSTAYMELSSLTSEDTAVYFCARMDYEAHYWGQGTTVTVSS
VL: DIQMTQSPSSLSASVGDRVTITCRASQEISGYLTWLQQKPEGAIKRLIYAASTLDSGVPKRFSGSRSGSDYSLTISSLQPEDFATYNCLQYANYPRTFGGGTKLEIK
notes: human IgG1/kappa; also called humanized 5E3 IgG1; IHA variant
B2: hu5E3-IgG2 (antibody, V domains shown)
VH: B1 VH
VL: B1 VL
notes: human IgG2/kappa; also called humanized 5E3 IgG2
B3: murine monoclonal antibody 5E3 (antibody, V domains shown)
VH: B1 VH with V11L, K12V, K19R, A40R, E82Q, S85R, T91S, V112L
VL: B1 VL with V15L, D17E, T20S, I21L, E41D, A43T, Q79E, P80S, T85D
notes: mouse antibody of the 5E3 hybridoma; also called murine 5E3; m5E3
B4: hu5E3-IgG4 (antibody, V domains shown)
VH: B1 VH
VL: B1 VL
notes: human IgG4/kappa; also called humanized 5E3 IgG4
B5: rehu5E3-IgG4 (antibody, V domains shown)
VH: B1 VH with K12V, T87R, T91S, T111L
VL: B1 VL with V15L, I21L, G42K, S72T, T85D
notes: human IgG4/kappa; also called IgG4 rehu version

The binders below were run against T1, cSNK:BSA conjugate (bovine, head-to-tail cyclized; conjugated to BSA carrier) (assay: BLI 2:1 fit, site 2 (kon2); 25 nM row).
T1 construct: also called BSA-cSNK
Protocol: (§1) Biolayer interferometry (Octet […], ForteBio) was used to qualitatively/quantitatively assess the interactions between humanized versions of 5E3 and cSNK:BSA conjugate. […] MAbs were loaded onto sensors and then washed in PBST. Each sensor was associated with one of several cSNK:BSA standards (100 nM to 0 nM) and then washed in PBST. Data was processed statistically using ForteBio Data Analysis software to determine the strength of antigen-antibody binding (KD). For each mAb analyzed, a 2:1 model provided the “best fit”.

T1 sequence (P02769 25-607 limits assumed): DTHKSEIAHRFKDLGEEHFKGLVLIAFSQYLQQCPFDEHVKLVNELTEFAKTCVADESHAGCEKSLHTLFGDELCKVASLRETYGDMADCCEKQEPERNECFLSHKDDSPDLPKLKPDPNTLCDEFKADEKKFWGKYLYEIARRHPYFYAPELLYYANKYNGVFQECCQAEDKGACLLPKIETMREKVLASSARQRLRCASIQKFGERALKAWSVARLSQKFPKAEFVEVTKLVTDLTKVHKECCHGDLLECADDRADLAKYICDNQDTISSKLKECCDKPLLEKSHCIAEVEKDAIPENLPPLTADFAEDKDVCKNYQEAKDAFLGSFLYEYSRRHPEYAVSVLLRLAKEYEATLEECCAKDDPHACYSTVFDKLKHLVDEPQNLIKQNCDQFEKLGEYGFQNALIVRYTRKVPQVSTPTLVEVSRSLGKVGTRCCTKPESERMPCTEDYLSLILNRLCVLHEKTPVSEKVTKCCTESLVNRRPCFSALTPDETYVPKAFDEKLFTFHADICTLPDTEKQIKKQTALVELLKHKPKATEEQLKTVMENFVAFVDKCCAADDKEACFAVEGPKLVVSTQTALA

kon | Binder
6.56e+06 M⁻¹ s⁻¹ | B1
5.28e+06 M⁻¹ s⁻¹ | B2
1.42e+07 M⁻¹ s⁻¹ | B3
7.52e+06 M⁻¹ s⁻¹ | B4
4.44e+06 M⁻¹ s⁻¹ | B5

The binders below were run against T1, cSNK:BSA conjugate (assay: BLI 2:1 fit, site 2 (kdis2); 12.5 nM row).
Protocol: as §1

koff | Binder
0.012 s⁻¹ | B1
0.0338 s⁻¹ | B2
0.0226 s⁻¹ | B3
0.0229 s⁻¹ | B4
0.0175 s⁻¹ | B5

Each binder was assayed against T1, cSNK:BSA conjugate (assay: BLI 2:1 fit, site 1; 6.25 nM row).
Protocol: as §1

Kd | koff | kon | Binder
0.463 nM | 0.000825 s⁻¹ | 1.78e+06 M⁻¹ s⁻¹ | B1
1.18 nM | 0.000762 s⁻¹ | 644000 M⁻¹ s⁻¹ | B2
0.33 nM | 0.000428 s⁻¹ | 1.29e+06 M⁻¹ s⁻¹ | B3
0.633 nM | 0.00055 s⁻¹ | 868000 M⁻¹ s⁻¹ | B4
– | 0.000386 s⁻¹ | 692000 M⁻¹ s⁻¹ | B5

The binders below were run against T1, cSNK:BSA conjugate (assay: BLI 2:1 fit, site 2 (kdis2); 50 nM row).
Protocol: as §1

koff | Binder
0.012 s⁻¹ | B1
0.0338 s⁻¹ | B2
0.0226 s⁻¹ | B3
0.0229 s⁻¹ | B4
0.0175 s⁻¹ | B5

These binders were tested against T1, cSNK:BSA conjugate (assay: BLI (Octet), 1:1 model, BSA-cSNK).
Protocol: Biolayer interferometry (Octet Red92, ForteBio) was used to qualitatively/quantitatively assess the interactions between humanized 5E3 and Δ5E3 mAbs to the cSNK:BSA conjugate. […] MAbs were loaded onto sensors and then washed in PBST. Each sensor was associated with one of several cSNK:BSA standards (100 nM to 0 nM) and then washed in PBST. Data was processed statistically using ForteBio Data Analysis software to determine the strength of antigen-antibody binding (KD). For each mAb analyzed, a 1:1 model provided the “best fit”.

Kd | Binder
2.01 nM | B1
0.326 nM | B2
1.31 nM | B4

What follows are binders tested against T1, cSNK:BSA conjugate (assay: BLI 2:1 fit, site 2 (KD2); 3.13 nM row).
Protocol: as §1

Kd | Binder
1.82 nM | B1
6.39 nM | B2
1.59 nM | B3
3.04 nM | B4
3.94 nM | B5

The binders below were run against T1, cSNK:BSA conjugate (assay: BLI 2:1 fit, site 2 (kdis2); 25 nM row).
Protocol: as §1

koff | Binder
0.012 s⁻¹ | B1
0.0338 s⁻¹ | B2
0.0226 s⁻¹ | B3
0.0229 s⁻¹ | B4
0.0175 s⁻¹ | B5

What follows are binders tested against T1, cSNK:BSA conjugate (assay: BLI 2:1 fit, site 2 (kdis2); 6.25 nM row).
Protocol: as §1

koff | Binder
0.012 s⁻¹ | B1
0.0338 s⁻¹ | B2
0.0226 s⁻¹ | B3
0.0229 s⁻¹ | B4
0.0175 s⁻¹ | B5

Each binder was assayed against T1, cSNK:BSA conjugate (assay: BLI 2:1 fit, site 2 (KD2); 50 nM row).
Protocol: as §1

Kd | Binder
1.82 nM | B1
6.39 nM | B2
1.59 nM | B3
3.04 nM | B4
3.94 nM | B5

What follows are binders tested against T1, cSNK:BSA conjugate (assay: BLI (Octet RED96), 2:1 kinetics, KD2, summary table).
Protocol: as §1
(§2) Table 7 summarizes the affinity constants of humanized 5E3 IgG1, IgG2 and IgG4 constructs. The KD ranges were determined using 2:1 kinetics of binding of analyte (BSA-cSNK) in solution to two different binding sites on the surface (immobilized bivalent, monospecific 5E3) in comparison to murine 5E3 using biolayer interferometry (Octet RED96).

Kd | Binder
0.182 nM | B1
6.39 nM | B2
0.304 nM | B4
0.394 nM | B5

These binders were tested against T1, cSNK:BSA conjugate (assay: BLI 2:1 fit, site 2 (KD2); 6.25 nM row).
Protocol: as §1

Kd | Binder
1.82 nM | B1
6.39 nM | B2
1.59 nM | B3
3.04 nM | B4
3.94 nM | B5

These binders were tested against T1, cSNK:BSA conjugate (assay: BLI 2:1 fit, site 2 (kdis2); 1.56 nM row).
Protocol: as §1

koff | Binder
0.012 s⁻¹ | B1
0.0226 s⁻¹ | B3
0.0229 s⁻¹ | B4
0.0175 s⁻¹ | B5

These binders were tested against T1, cSNK:BSA conjugate (assay: BLI 2:1 fit, site 2 (kon2); 3.13 nM row).
Protocol: as §1

kon | Binder
6.56e+06 M⁻¹ s⁻¹ | B1
5.28e+06 M⁻¹ s⁻¹ | B2
1.42e+07 M⁻¹ s⁻¹ | B3
7.52e+06 M⁻¹ s⁻¹ | B4
4.44e+06 M⁻¹ s⁻¹ | B5

What follows are binders tested against T1, cSNK:BSA conjugate (assay: BLI (Octet RED96), 2:1 kinetics, KD1, summary table).
Protocol: as §1, §2

Kd | Binder
0.463 nM | B1
1.18 nM | B2
0.33 nM | B3
0.633 nM | B4
0.557 nM | B5

These binders were tested against T1, cSNK:BSA conjugate (assay: BLI 2:1 fit, site 2 (KD2); 12.5 nM row).
Protocol: as §1

Kd | Binder
1.82 nM | B1
6.39 nM | B2
1.59 nM | B3
3.04 nM | B4
3.94 nM | B5

The binders below were run against T1, cSNK:BSA conjugate (assay: BLI 2:1 fit, site 2 (kon2); 12.5 nM row).
Protocol: as §1

kon | Binder
6.56e+06 M⁻¹ s⁻¹ | B1
5.28e+06 M⁻¹ s⁻¹ | B2
1.42e+07 M⁻¹ s⁻¹ | B3
7.52e+06 M⁻¹ s⁻¹ | B4
4.44e+06 M⁻¹ s⁻¹ | B5

What follows are binders tested against T1, cSNK:BSA conjugate (assay: BLI 2:1 fit, site 2 (KD2); 100 nM row).
Protocol: as §1

Kd | Binder
6.39 nM | B2
1.59 nM | B3
3.04 nM | B4
3.94 nM | B5

The binders below were run against T1, cSNK:BSA conjugate (assay: BLI 2:1 fit, site 1; 1.56 nM row).
Protocol: as §1

Kd | koff | kon | Binder
0.463 nM | 0.000825 s⁻¹ | 1.78e+06 M⁻¹ s⁻¹ | B1
0.33 nM | 0.000428 s⁻¹ | 1.29e+06 M⁻¹ s⁻¹ | B3
0.633 nM | 0.00055 s⁻¹ | 868000 M⁻¹ s⁻¹ | B4
– | 0.000386 s⁻¹ | 692000 M⁻¹ s⁻¹ | B5

These binders were tested against T1, cSNK:BSA conjugate (assay: BLI 2:1 fit, site 1; 50 nM row).
Protocol: as §1

Kd | koff | kon | Binder
0.463 nM | 0.000825 s⁻¹ | 1.78e+06 M⁻¹ s⁻¹ | B1
1.18 nM | 0.000762 s⁻¹ | 644000 M⁻¹ s⁻¹ | B2
0.33 nM | 0.000428 s⁻¹ | 1.29e+06 M⁻¹ s⁻¹ | B3
0.633 nM | 0.00055 s⁻¹ | 868000 M⁻¹ s⁻¹ | B4
– | 0.000386 s⁻¹ | 692000 M⁻¹ s⁻¹ | B5

Each binder was assayed against T1, cSNK:BSA conjugate (assay: BLI 2:1 fit, site 2 (kon2); 6.25 nM row).
Protocol: as §1

kon | Binder
6.56e+06 M⁻¹ s⁻¹ | B1
5.28e+06 M⁻¹ s⁻¹ | B2
1.42e+07 M⁻¹ s⁻¹ | B3
7.52e+06 M⁻¹ s⁻¹ | B4
4.44e+06 M⁻¹ s⁻¹ | B5

What follows are binders tested against T1, cSNK:BSA conjugate (assay: BLI 2:1 fit, site 2 (kon2); 50 nM row).
Protocol: as §1

kon | Binder
6.56e+06 M⁻¹ s⁻¹ | B1
5.28e+06 M⁻¹ s⁻¹ | B2
1.42e+07 M⁻¹ s⁻¹ | B3
7.52e+06 M⁻¹ s⁻¹ | B4
4.44e+06 M⁻¹ s⁻¹ | B5

What follows are binders tested against T1, cSNK:BSA conjugate (assay: BLI 2:1 fit, site 2 (KD2); 1.56 nM row).
Protocol: as §1

Kd | Binder
1.82 nM | B1
1.59 nM | B3
3.04 nM | B4
3.94 nM | B5

What follows are binders tested against T1, cSNK:BSA conjugate (assay: BLI 2:1 fit, site 1; 3.13 nM row).
Protocol: as §1

Kd | koff | kon | Binder
0.463 nM | 0.000825 s⁻¹ | 1.78e+06 M⁻¹ s⁻¹ | B1
1.18 nM | 0.000762 s⁻¹ | 644000 M⁻¹ s⁻¹ | B2
0.33 nM | 0.000428 s⁻¹ | 1.29e+06 M⁻¹ s⁻¹ | B3
0.633 nM | 0.00055 s⁻¹ | 868000 M⁻¹ s⁻¹ | B4
– | 0.000386 s⁻¹ | 692000 M⁻¹ s⁻¹ | B5

These binders were tested against T1, cSNK:BSA conjugate (assay: BLI 2:1 fit, site 2 (kon2); 1.56 nM row).
Protocol: as §1

kon | Binder
6.56e+06 M⁻¹ s⁻¹ | B1
1.42e+07 M⁻¹ s⁻¹ | B3
7.52e+06 M⁻¹ s⁻¹ | B4
4.44e+06 M⁻¹ s⁻¹ | B5

Each binder was assayed against T1, cSNK:BSA conjugate (assay: BLI 2:1 fit, site 2 (KD2); 25 nM row).
Protocol: as §1

Kd | Binder
1.82 nM | B1
6.39 nM | B2
1.59 nM | B3
3.04 nM | B4
3.94 nM | B5
